A protein production outcome set (Wang et al. 2014)

Assay: label from the status in PepcDB records
With “MKVTSVGAAMLLLIVGNLIAVLSDSLIKSVANEVPMFQFVFFRQISAVMFLLPVCLLAKQTNFMEGFKWHAVRAHVWLLGAVFMVMAISSLPLATANAIFYAAPLIMLPLAAIFFGEQLSKQSVAAAVMGFAGVLVIIRPDQIDWAAISAFVVALTLAINNLLIRKLPKNQSVMQTLLMTNLAGIPVALLLVLIEDQPWQWGAFPVAAGSSLFIMIYAATCVLAYRSIDSNKIASAEYSGLIGAVVVGFIWFGEIPDIFMAIGTVMIVVPLIWLSKRERRKQKEHAQLQAQKEHEQQQAHVA” the protein production was “failed”. For “MKVVLAAIHPVPSPQAVPLANAFLKAYLGTDEELAARVAVTLCDFLRSTPADVCAAEILAHEPDAVGFSLYLWNTEESGRIAAELRRNRPGITIFAGGPQATADPLGTLTGGGYDFLILGEGEVPFLEVTARLADGRPFRGAPGTAWLDDGKLASRPQKPVALLDTIPSPFLSGIIEPGRYGGLLWQLSRGCDFACEYCFDYKGTKGVRRFSLERVDAELDFLVRHNVPQVFVLDSTFNVDAKRAKTILRMIRKRAPHIHFHFEVRSEFLDREMARLFAGITCSLQIGLQSADPAILKGIRRHFDPDDFRKRVALLNESGAVFGFDLIYGLPGDSLAGFRQSLDFALALYPNHLDIFPLAVLPGTPLAARAAQAGLDHLPAPPYALTATPTFPAPDMKRAARLAGACDIFYSRGKAVAWFNGVIAPLSLTPAEFLDAFGGWLARQGIEAREEALGDEAIWSLQRSFLAHIFADRRVRRLLPVALDLVDYHYHYAAALLAPPPELPTDRSLAGLNILDQVVCLAPSTRLARFSYEITDLLEAGNADLREICACFSPSPSWAVIYPRGNDIFTESLLESYFLLLEGLDGCCRAGDVVARLALSGEGAAEFLKFAAAEGIVTVRNCP”, the protein production was “failed”. For “MKVYIETMGCAMNSRDSEHLLSELSKLDYKETNDPKTADLILINTCSVREKPERKLFSEIGQFAKIKKPNAKIGVCGCTASHMGADILKKAPSVSFVLGARNVSKISQVIHKEKAVEVAIDYDESAYAFEFFEKKAQIRSLLNISIGCDKKCAYCIVPHTRGKEISIPMDLILKEAEKLANNGTKELMLLGQNVNNYGARFSSEHAKVDFSDLLDKLSEIQGIERIRFTSPHPLHMNDGFLERFAKNPKVCKSIHMPLQSGSSAVLKMMRRGYSKEWFLNRVERLKALVPEVGISTDIIVGFPNESDKDFEDTMEVLEKVRFDTLYSFIYSPRPFTEAGAWKERVPLEVSSSRLERLQNRHKEILEEKAKLEVGKTHVVLVENRREMDNQIVGFEGRSDTGKFIEVTCKEKRNPGELVKVEIISHSKGRLMAATKGN”, the protein production was “failed”. With “MKWEMGLQEEYIELIKAGKKKIEGRLYDEKRRQIKPGDIIIFEGGKLKVKVKGIRVYSSFKEMLEKEGIENVLPGVKSIEEGVKVYRQFYDEEREKKYGVVAIEIEPIE” the protein production was “not failed”. For “MKWIEIYEKLVNIDTGPDLPLEGKLRRTSFLTEILEDLGFRVEKREAAYVAFRGKPPYVTLIGHLDTVFPEGESKRRPFTIEGNIAKGPGVCDMKGGVVILLESLKRFLQQNDTDLCVVLNVDEELGSPLSGEVFKEVAGMSSHCLSFEPGRENGELISSRKGIISLWLFARGKKGHASRLDEGANAIVELAFKVVELTSLNGRFPNLTLNPTIVKGGAESNVTPDKAEVYFDVRYYDDKEYEFLEETLKRLSAVHPEANVSYTLKLRRLPMKEDPDFVNIVKMSAEEIGMTVSFVRATGGGDVAFFSQNGVPSIDGLGIPGGKMHSEDEYARLDQFEDRVNLVVHLLRKLGGEKNVR”, the protein production was “not failed”.
